# Data from article PMC8753264.
# Tests used:
# Test in all cases: In vitro phosphorylation kinetics with recombinant Akt
# Format in all cases: biochemical
# Details in all cases: other: recombinant Akt; n = 3
# [1] = test system: CC(C)[C@H](NC(=O)[C@H](CCC(=O)O)NC(=O)[C@H](CCC(=O)O)NC(=O)[C@H](Cc1ccc(O)cc1)NC(=O)[C@H](CCC(=O)O)NC(=O)[C@H](CC(=O)O)NC(=O)[C@H](CC(=O)O)NC(=O)[C@H](CCC(=O)O)NC(=O)[C@@H](CCCNC(=N)N)NC(=O)[C@@H](CCCNC(=N)N)NC(=O)[C@@H](CCCNC(=N)N)NC(=O)[C@H](C)N(C)C(=O)[C@H](Cc1ccccc1)NC(=O)[C@@H](NC(=O)[C@H](Cc1ccccc1)NC(=O)[C@H](C)NC(=O)[C@H](CCCNC(=N)N)N(C)C(=O)[C@@H]1CCCN1C(=O)[C@H](CCCNC(=N)N)NC(=O)CNC(=O)c1ccc2c(c1)C1(OC2=O)c2ccc(O)cc2Oc2cc(O)ccc21)[C@@H](C)O)C(N)=O
# [2] = test system: CC(C)[C@H](NC(=O)[C@H](CCC(=O)O)NC(=O)[C@H](CCC(=O)O)NC(=O)[C@@H]1Cc2ccc(O)cc2CN1C(=O)[C@H](CCC(=O)O)NC(=O)[C@H](CC(=O)O)NC(=O)[C@H](CC(=O)O)NC(=O)[C@H](CCC(=O)O)NC(=O)[C@@H](CCCNC(=N)N)NC(=O)[C@@H](CCCNC(=N)N)NC(=O)[C@@H](CCCNC(=N)N)NC(=O)[C@H](C)N(C)C(=O)[C@H](Cc1ccccc1)NC(=O)[C@@H](NC(=O)[C@H](Cc1ccccc1)NC(=O)[C@H](C)NC(=O)[C@H](CCCNC(=N)N)N(C)C(=O)[C@@H]1CCCN1C(=O)[C@H](CCCNC(=N)N)NC(=O)CNC(=O)c1ccc2c(c1)C1(OC2=O)c2ccc(O)cc2Oc2cc(O)ccc21)[C@@H](C)O)C(N)=O
# [3] = test system: CC(C)[C@H](NC(=O)[C@H](CCC(=O)O)NC(=O)[C@H](CCC(=O)O)NC(=O)[C@H](Cc1ccc(O)cc1)NC(=O)[C@H](CCC(=O)O)NC(=O)[C@H](CC(=O)O)NC(=O)[C@H](CC(=O)O)NC(=O)[C@H](CCC(=O)O)NC(=O)CCCCCNC(=O)[C@H](C)N(C)C(=O)[C@H](Cc1ccccc1)NC(=O)[C@@H](NC(=O)[C@H](Cc1ccccc1)NC(=O)[C@H](C)NC(=O)[C@H](CCCNC(=N)N)N(C)C(=O)[C@@H]1CCCN1C(=O)[C@H](CCCNC(=N)N)NC(=O)CNC(=O)c1ccc2c(c1)C1(OC2=O)c2ccc(O)cc2Oc2cc(O)ccc21)[C@@H](C)O)C(N)=O
substance,measurement,setting,value
recombinant Akt (Homo sapiens),Km,[1],14 ± 3 µM
same,kcat,[1],0.7 ± 0.1 s⁻¹
same,Km,[2],17 ± 5 µM
same,kcat,[2],0.8 ± 0.1 s⁻¹
same,Km,[3],28 ± 16 µM
same,kcat,[3],1.0 ± 0.4 s⁻¹
